Five molecules from patent US20240279345A1, “ALPHA 5 BETA 1 INTEGRIN BINDING AGENTS AND USES THEREOF” (PASITHEA THERAPEUTICS CORP., priority 2021, published 2024) can be followed below.

Numbering of substitutions follows the chain as printed.

Test [1] concerns the target purified recombinant human α5β1 integrin heterodimer (rh-α5β1; Acro Biosystems, cat. no. IT1-H52W5) (human) (UniProt P08648). Put plainly: Conformation assay ELISA: plate coated with 12G10, soluble 12G10 dilution series premixed with His-tagged rh-α5β1 and 0.5 mM MnCl2, captured α5β1 detected by anti-6xHis; competitor on the plate: 12G10 itself.
Test [2] concerns the target purified recombinant human α5β1 integrin heterodimer, 6×His tagged (rh-α5β1; Acro Biosystems, cat. no. IT1-H52W5) (human) (UniProt P08648). Put plainly: ELISA, inhibition of rh-α5β1-His binding to coated FN, isotype control (data normalised to it). In general terms: An ELISA detects its analyte on a solid surface through an enzyme-linked reagent.
The target in test [3] is T1, recombinant mouse α5β1 integrin (mouse, UniProt P11688 45-999; P09055 21-728).
T1 construct: bought recombinant heterodimer (R&D Systems cat. 7728-A5) coated on the plate; also called rm-α5β1
The test is described as follows: ELISA, coated integrin, supernatant 1:10. The protocol:
Plates were washed 3 times with Wash Buffer (1× Tris Buffered Saline containing 0.05% Tween20), blocked with 2% BSA in 1×TBS (made from 10× Thermo Scientific Blocker BSA (10×) in TBS; Thermo Fisher Scientific, Waltham, MA, cat. no. 37520) for 2 hours at room temperature (RT) then incubated with hybridoma supernatants diluted 1:10 with Standard Diluent (2% BSA, 1×TBS, 0.05% Tween20). […] Absorbance 450 nm was measured.

Test [4] has as its target purified recombinant human α5β1 integrin heterodimer, 6×His tagged (rh-α5β1; Acro Biosystems, cat. no. IT1-H52W5) (human) (UniProt P08648). The test is described as follows: BLI (Octet), supernatant mAb on anti-mouse IgG Fc sensor, 20 nM rh-α5β1. (In general: Biolayer interferometry detects binding as a change in optical thickness at a sensor tip.)
Test [5] has as its target α5β1 integrin on cells (PMA-activated K562 cells; U87MG cells) (human) (UniProt P08648). The test is described as follows: flow cytometry on PMA-activated K562 cells, hybridoma supernatant. (A flow cytometer gives signals particle by particle.)
The target of test [6] is recombinant human α4β1 integrin (human) (UniProt P13612). The test is described as follows: ELISA, coated integrin, supernatant 1:10.
The target of test [7] is recombinant human α5β1 integrin (human) (UniProt P08648). The test is described as follows: ELISA, coated integrin, supernatant 1:10.
In test [8] the target is T2, purified recombinant human α5β1 integrin heterodimer (rh-α5β1; Acro Biosystems, cat. no. IT1-H52W5) (human, UniProt P08648 42-995; P05556 21-728).
T2 construct: Bought protein; 6×His tagged; also called rh-α5β1-6×His tagged protein; His-tagged-α5β1
Put plainly: FN-blocking ELISA. On the procedure: Following 1 hour at RT, the wells were washed 3 times, incubated with biotinylated Anti-6×His-Tag Ab (Invitrogen, Carlsbad, CA, cat. no. MAI-21315-BTIN) at 1:1000 in Standard Diluent for 1 hour, washed 3 times, incubated for 30 minutes with poly-HRP Streptavidin (Thermo Fisher Scientific, Waltham, MA, cat. no. N200), washed 4 times, incubated with TMB substrate (Thermo Fisher Scientific, Waltham, MA, cat. no. N301) for 2-5 minutes, followed by addition of ELISA Stop Solution (Invitrogen, Carlsbad, CA, cat. no. SS04). Absorbance 450 nm was measured. Data points were normalized to the isotype Control Ab values at each concentration and reported as % Absorbance 450 nm normalized to Control Ab. Non-linear regression analysis was used to fit curves (4-parameter) to the data using GraphPad Prism version 9.0.2 (GraphPad Software, LLC, San Diego, CA).

Test [9] has as its target T2, purified recombinant human α5β1 …. Put plainly: Conformation assay ELISA: plate coated with 12G10, antibody dilution series premixed with His-tagged rh-α5β1 and 0.5 mM MnCl2, captured α5β1 detected by anti-6xHis; competitor on the plate: 12G10. The protocol:
Plates were then washed 3 times with Wash Buffer (1× Tris Buffered Saline containing 0.05% Tween20), then blocked with 2% BSA in 1×TBS for 2 hours at room temperature (RT). […] After 1 hour at RT, the wells were washed 3 times, incubated with biotinylated Anti-6×His-Tag Ab (Invitrogen, Carlsbad, CA, cat. no. MAI-21315-BTIN) at 1:1000 in Standard Diluent for 1 hour, washed 3 times, incubated for 30 minutes with poly-HRP Streptavidin (Thermo Fisher Scientific, Waltham, MA, cat. no. N200), washed 3 times, incubated with TMB substrate (Thermo Fisher Scientific, Waltham, MA, cat. no. N301) for 2-5 minutes, followed by addition of ELISA Stop Solution (Invitrogen, Carlsbad, CA, cat. no. SS04). Absorbance 450 nm was measured.

For the molecule “12G10 (mouse anti-human integrin beta1/CD29 antibody, Novus Biologicals, cat. no. NB100-63255)”, in [1], the IC50 (read off the curve) came out at 0.08 µg/mL.
For “Isotype control antibody (Ms IgG2a, EMD Millipore, cat. no. PP102)”, the % Max Inhibition in test [2] was determined as 0%.

B1: A-15C03 (antibody, part only; not given: light chain, V domains shown, part only)
VH: QVQLKESGPGLVAPSQSLSITCTISGFSLTTYGVHWVRQPPGKGLEWLVVIWSDGSTTYNSALKSRLNITKDNSKSQVFLKMNSLQTDDTAMYYCVRHGGLLRRDAMDYWGQGTSVTVSS
With B1, the Absorbance 450 nm in test [3] worked out at 0.0709 A450. In test [4], the Kd was 4.67 nM, the koff came out at 0.00129 s⁻¹ and the kon was 276000 M⁻¹ s⁻¹. Moreover, the MFI in test [5] came to 1970. In addition, in test [6], the Absorbance 450 nm came out at 0.0793 A450. For the same molecule, the Absorbance 450 nm in test [7] is 0.478 A450.

B2: A-15B08 IgG4 Chimera (antibody, V domains shown)
VH: QVQLKESGPGLVAPSQSLSITCTISGFSLTSYGVHWVRQPPGKGLEWLVVIWSDGSTTYNSTLKSRLSISKDNSKSQVFFKMNSLQTDDTAMYYCARHYDYDGDWFAYWGQGTLVTVSA
VL: QIVLTQSPAIMSASLGERVTMTCTASSRVSSNSLHWYQQKPGSSPKLWIYSTSNLASGVPARFSGSGSGTSYSLTISSMEAEDAATYYCHQYLRSPPTFGGGTKLEIK
notes: heavy chain glycosylated at the NST site of CDRH2; also called A-15B08 (human IgG4 chimeric antibody)
For the molecule B2, the “fold potency (IC50) against the mouse hybridoma antibody it was derived from” value in test [8] was ~2 fold. In addition, in test [9], the “IC50 (read off the curve)” value is ~0.02 µg/mL.

B3: C-14D12 IgG4 Chimera (antibody, V domains shown)
VH: QVQLKESGPDLVAPSQSLSITCTVSGFSLTDYGVHWVRQPPGKGLEWLVVIWSDGSTTYNSALKSRLSITKDTSKRQVFLKMNSLQTDDTAMYYCARHAPSFIRYGSRYDALDYWGQGTSVTVSS
VL: B2 VL with M21L, R28S, S30T, N32S, S33F, L93H
notes: also called C-14D12 (human IgG4 chimeric antibody)
On to B3, for which the “fold potency (IC50) against the mouse hybridoma antibody it was derived from” value in test [8] was ~2 fold. For the same molecule, the “IC50 (read off the curve)” value in test [9] was ~0.02 µg/mL.

One may read the Kd as a measure of binding affinity in units of concentration. The term koff denotes the first-order rate constant of dissociation. What is called kon is a measure of how fast the partners come together.
